Experimental data: paper PMC7797080 (Nucleic Acids Research, 2020)

Molecular target: the molecule itself
Experiment: SEC

B1: PSEUDOURIDINE KINASE from Arabidopsis (AtPUKI), native, tag-free (enzyme, Arabidopsis thaliana)
chain: GGGSMEPVIIGALILDVHAKPSTTPISGTTVPGQVLFAPGGVARNVADCIFKLGITPFMIGTLGLDGPANVLLKEWKLSMKGILRREDISTPIVSLVYDTNGEVAAGVAGVDAVENFLTPEWIQRFEYNISSARLLMVDANLSSLALEASCKLAAESSVPVWFEPVSVTKSQRIASIAKYVTIVSPNQDELIAMANALCAKNLFHPFRSDENKLSIEDMFRALKPAILVLLKNGVKVVIVTLGSNGALLCSKGNPKKALNIDRKFLRSGEVFKRVQSVCSPNRFSELGSNRSPSLFAMHFPTIPAKVKKLTGAGDCLVGGTVASLSDGLDLIQSLAVGIASAKAAVESDDNVPPEFKLDLISGDAELVYNGAKMLMVHQSML
  stoichiometry N: 2
